Measurements as given in patent publication US20060223096A1 (GLYCART BIOTECHNOLOGY, published 2006).

Molecular target: T1, human melanoma chondroitin sulfate proteoglycan (MCSP) (human, UniProt Q6UVK1 30-2322)
T1 construct: whole, on cells; also called HMW-MAA; high molecular weight-melanoma-associated antigen
Test: flow cytometry on A375 human melanoma cells; reference antibody of the comparison
Protocol: The purified, monomeric humanized antibody variants were tested for binding to the human HMW-MAA/MCSP antigen on the A375 human melanoma cell line, using a flow cytometry-based assay. 200,000 cells (in 180 μl FACS buffer (PBS containing 2% FCS and 5 mM EDTA) were transferred to 5 ml polystyrene tubes and 20 μl 10 fold concentrated anti-MCSP antibody (primary antibody) samples (1-5000 ng/ml final concentration) or PBS only were added. After gently mixing the samples, the tubes were incubated at 4° C. for 30 min in the dark. Subsequently, samples were washed twice with FACS buffer and pelleted at 300 g for 3 min. Supernatant was aspirated off and cells were taken up in 50 μl FACS buffer and 2 μl secondary antibody (anti-Fc-specific F(ab′)2-FITC fragments (Jackson Immuno Research Laboratories, USA)) was added and the tubes were incubated at 4° C. for 30 min. Samples were washed twice with FACS buffer and taken up in 500 μl of FACS buffer for analysis by Flow Cytometry. Binding was determined by plotting the geometric mean fluorescence against the antibody concentrations.

T1 sequence (Q6UVK1 30-2322): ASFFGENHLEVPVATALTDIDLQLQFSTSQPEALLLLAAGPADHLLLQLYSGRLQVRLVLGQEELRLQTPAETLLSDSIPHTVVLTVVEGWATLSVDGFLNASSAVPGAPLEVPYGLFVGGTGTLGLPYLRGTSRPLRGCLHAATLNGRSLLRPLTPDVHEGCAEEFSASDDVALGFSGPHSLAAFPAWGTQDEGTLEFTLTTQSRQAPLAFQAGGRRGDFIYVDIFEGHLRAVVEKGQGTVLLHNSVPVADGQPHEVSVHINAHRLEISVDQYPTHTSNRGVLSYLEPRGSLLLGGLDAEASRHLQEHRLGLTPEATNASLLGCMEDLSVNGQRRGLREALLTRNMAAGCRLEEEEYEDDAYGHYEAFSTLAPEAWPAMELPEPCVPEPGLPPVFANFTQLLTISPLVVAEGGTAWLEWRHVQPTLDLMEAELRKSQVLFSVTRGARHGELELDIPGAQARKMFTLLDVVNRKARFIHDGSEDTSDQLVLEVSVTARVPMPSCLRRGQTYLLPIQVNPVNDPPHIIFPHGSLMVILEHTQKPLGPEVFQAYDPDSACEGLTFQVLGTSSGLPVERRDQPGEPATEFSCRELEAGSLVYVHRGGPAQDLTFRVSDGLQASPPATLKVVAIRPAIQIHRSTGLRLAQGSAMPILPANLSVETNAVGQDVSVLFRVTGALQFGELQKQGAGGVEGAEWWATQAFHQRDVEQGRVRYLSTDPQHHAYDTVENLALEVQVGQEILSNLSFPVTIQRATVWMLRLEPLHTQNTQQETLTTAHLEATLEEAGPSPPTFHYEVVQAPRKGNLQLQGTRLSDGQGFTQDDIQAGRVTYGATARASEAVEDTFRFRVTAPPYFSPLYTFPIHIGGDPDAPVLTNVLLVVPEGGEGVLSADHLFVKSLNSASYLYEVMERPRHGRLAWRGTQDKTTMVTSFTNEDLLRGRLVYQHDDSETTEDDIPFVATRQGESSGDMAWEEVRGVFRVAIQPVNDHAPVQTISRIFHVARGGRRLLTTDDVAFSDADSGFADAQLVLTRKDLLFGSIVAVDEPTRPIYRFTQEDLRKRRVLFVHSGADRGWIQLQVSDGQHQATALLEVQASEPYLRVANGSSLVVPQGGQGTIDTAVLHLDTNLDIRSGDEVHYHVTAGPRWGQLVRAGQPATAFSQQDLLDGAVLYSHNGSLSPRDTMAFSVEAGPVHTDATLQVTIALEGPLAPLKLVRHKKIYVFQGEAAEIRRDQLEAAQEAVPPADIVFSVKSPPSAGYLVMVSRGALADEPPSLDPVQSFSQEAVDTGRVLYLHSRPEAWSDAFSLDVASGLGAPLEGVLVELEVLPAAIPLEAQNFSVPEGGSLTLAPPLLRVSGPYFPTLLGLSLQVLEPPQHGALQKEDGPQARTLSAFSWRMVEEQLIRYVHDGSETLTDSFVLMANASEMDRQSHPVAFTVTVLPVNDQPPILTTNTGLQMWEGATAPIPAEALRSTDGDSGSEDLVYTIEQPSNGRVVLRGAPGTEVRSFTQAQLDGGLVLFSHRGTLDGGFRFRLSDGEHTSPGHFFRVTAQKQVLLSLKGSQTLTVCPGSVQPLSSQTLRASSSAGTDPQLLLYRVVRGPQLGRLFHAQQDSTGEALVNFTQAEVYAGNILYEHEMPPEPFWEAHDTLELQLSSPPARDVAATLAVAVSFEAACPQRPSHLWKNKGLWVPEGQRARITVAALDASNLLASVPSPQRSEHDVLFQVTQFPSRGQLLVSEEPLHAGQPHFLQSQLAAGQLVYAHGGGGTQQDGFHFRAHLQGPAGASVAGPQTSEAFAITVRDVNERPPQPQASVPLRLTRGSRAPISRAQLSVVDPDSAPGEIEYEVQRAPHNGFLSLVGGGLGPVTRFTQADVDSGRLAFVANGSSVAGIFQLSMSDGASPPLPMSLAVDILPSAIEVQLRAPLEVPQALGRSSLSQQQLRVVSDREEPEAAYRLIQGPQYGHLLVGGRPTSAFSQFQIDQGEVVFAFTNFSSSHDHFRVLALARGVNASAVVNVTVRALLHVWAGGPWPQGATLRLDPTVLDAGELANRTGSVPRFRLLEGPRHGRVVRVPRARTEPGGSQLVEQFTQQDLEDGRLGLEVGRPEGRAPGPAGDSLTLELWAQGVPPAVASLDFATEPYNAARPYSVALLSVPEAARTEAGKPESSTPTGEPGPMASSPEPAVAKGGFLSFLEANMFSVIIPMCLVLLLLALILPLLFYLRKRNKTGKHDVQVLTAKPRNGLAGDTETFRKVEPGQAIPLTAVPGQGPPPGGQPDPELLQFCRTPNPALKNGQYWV

- binding result: binds
B1: ch-225.28S antibody (murine 225.28S VH and VL with human constant regions) (antibody, V domains shown)
VH: QVKLQQSGGGLVQPGGSMKLSCVVSGFTFSNYWMNWVRQSPEKGLEWIAEIRLKSNNFGRYYAESVKGRFTISRDDSKSSAYLQMINLRAEDTGIYYCTSYGNYVGHYFDHWGQGTTVTVSS
VL: DIELTQSPKFMSTSVGDRVSVTCKASQNVDTNVAWYQQKPGQSPEPLLFSASYRYTGVPDRFTGSGSGTDFTLTISNVQSEDLAEYFCQQYNSYPLTFGGGTKLEIK
notes: also called mVH/mVL
